Assay results published in US20240369568A1 (GlaxoSmithKline, published 2024).

Legend:
Experiment in all cases: SPR, release and stability method, specific binding activity
FcRn = target: T1, FcRn (UniProt P55899 24-297; P61769 21-119, limits assumed)
T1 construct: also called FcRNn
Experimental: (§1) Antigen, FcγRIIIa, and FcRn specific binding activity of the purified DL variants was measured using SPR. Antigen, FcγRIIIa and FcRN analyses were performed using a release and stability surface plasmon resonance (SPR) method. The specific binding activities measured were between 80-110% for the purified DL variants. […] Despite the trend observed, the decrease in binding activity as a function of drug load is minimal and remains within specification acceptance criteria. It has been observed that as the DAR increases, there is no significant change in antigen FcγRIIIa binding by SPR and antibody-dependent cell-mediated cytotoxicity (ADCC) activity.

[1] = target: T2, BCMA (the 'Antigen' of the SPR antigen binding assay) (human, UniProt Q02223 1-54, limits assumed)
T2 construct: also called human BCMA
T2 sequence (looked up): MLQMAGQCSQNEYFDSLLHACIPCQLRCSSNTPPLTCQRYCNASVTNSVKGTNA
Experimental: as §1

FcγRIIIa = target: T3, FcγRIIIa (UniProt P08637 17-208, limits assumed)
T3 construct: also called FcyRIIIa
Experimental: as §1

T1 sequence (P55899 24-297 limits assumed, chain 1 of 2): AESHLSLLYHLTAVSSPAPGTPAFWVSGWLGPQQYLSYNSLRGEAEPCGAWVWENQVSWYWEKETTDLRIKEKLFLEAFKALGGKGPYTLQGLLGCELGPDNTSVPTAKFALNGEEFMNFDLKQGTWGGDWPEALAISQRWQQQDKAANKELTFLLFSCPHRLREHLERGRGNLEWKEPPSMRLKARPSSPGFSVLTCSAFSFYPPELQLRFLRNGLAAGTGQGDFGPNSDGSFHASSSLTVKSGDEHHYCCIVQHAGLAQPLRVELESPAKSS
T1 sequence (P61769 21-119 limits assumed, chain 2 of 2): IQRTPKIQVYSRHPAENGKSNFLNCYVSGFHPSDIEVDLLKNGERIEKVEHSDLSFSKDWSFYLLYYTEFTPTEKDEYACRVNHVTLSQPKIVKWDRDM
T3 sequence (P08637 17-208 limits assumed): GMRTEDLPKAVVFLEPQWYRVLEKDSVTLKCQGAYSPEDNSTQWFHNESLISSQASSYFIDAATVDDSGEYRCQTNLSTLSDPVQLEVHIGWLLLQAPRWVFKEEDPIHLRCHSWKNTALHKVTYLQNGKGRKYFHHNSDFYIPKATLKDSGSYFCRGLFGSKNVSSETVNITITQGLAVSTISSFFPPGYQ

B1: purified DL4a drug-load variant of belantamab mafodotin (antibody, human IgG1, kappa)
heavy: not shown
light: not shown
modifications: mcMMAF on each LC C214 (sequential numbering); mcMMAF on each HC C224 (sequential numbering)
notes: Antibody drug conjugate, drug load of four
For B1, which “FcRNn Binding (%) (specific binding activity)” value (“FcRNn Binding (%)” for short) (FcRn) is on record?
The value was 102%.

And the “Antigen Binding (%) (specific binding activity)” value (from here on “Antigen Binding (%)”) [1]?
The value was 95%.

What about the “FcyRIIIa Binding (%) (specific binding activity)” value (“FcyRIIIa Binding (%)” below) (FcγRIIIa) of the same binder?
Its value is 103%.

B2: purified DL4b drug-load variant of belantamab mafodotin (antibody, human IgG1, kappa)
heavy: not shown
light: not shown
modifications: mcMMAF on HC C230 and HC C233 of both heavy chains (sequential numbering)
notes: Antibody drug conjugate, drug load of four at the hinge
Which results are given for B2?
FcRNn Binding (%) (specific binding activity) (FcRn): 99%; Antigen Binding (%) (specific binding activity) [1]: 90%; FcyRIIIa Binding (%) (specific binding activity) (FcγRIIIa): 91%

B3: purified DL8 drug-load variant of belantamab mafodotin (antibody, human IgG1, kappa)
heavy: not shown
light: not shown
modifications: mcMMAF on each LC C214 (sequential numbering); mcMMAF on HC C224, HC C230 and HC C233 of both heavy chains (sequential numbering)
notes: Antibody drug conjugate, drug load of eight
With B3 as the binder, how does the “FcRNn Binding (%)” value (FcRn) read?
The value was 93%.

And the “Antigen Binding (%)” value [1]?
The value was 86%.

What about the “FcyRIIIa Binding (%)” value (FcγRIIIa) of the same binder?
The value was 82%.

B4: purified DL0 drug-load variant of belantamab mafodotin (unconjugated belantamab) (antibody, human IgG1, kappa)
heavy: not shown
light: not shown
notes: HIC-purified fraction of belantamab mafodotin
Which “FcRNn Binding (%)” value (FcRn) does the source give for B4 here?
Its value is 108%.

And the “Antigen Binding (%)” value [1]?
The value was 103%.

What about the “FcyRIIIa Binding (%)” value (FcγRIIIa) of the same binder?
The value was 110%.

B5: purified DL2 drug-load variant of belantamab mafodotin (antibody, human IgG1, kappa)
heavy: not shown
light: not shown
modifications: mcMMAF on LC C214 of one of the two light chains (sequential numbering); mcMMAF on HC C224 of one of the two heavy chains (sequential numbering)
notes: Antibody drug conjugate, drug load of two; also called DL2a
What does the source list for B5?
FcRNn Binding (%) (specific binding activity) (FcRn): 109%; Antigen Binding (%) (specific binding activity) [1]: 99%; FcyRIIIa Binding (%) (specific binding activity) (FcγRIIIa): 104%
